Like-named read-outs stand apart in the source and are kept apart here.
Legend:
[1] = target: T1, Human-NKP30-His (Kactus, cat: NKP-HM430) (human, UniProt O14931 19-138, limits assumed); test: ELISA: Human-NKP30-His coated, antibody titrated 3-fold from 10 µg/mL, HRP goat anti-human IgG-Fc, OD450-OD570
T1 construct: also called NKP30 protein; NKP30-his protein; not shown: His tag
T1 sequence (looked up): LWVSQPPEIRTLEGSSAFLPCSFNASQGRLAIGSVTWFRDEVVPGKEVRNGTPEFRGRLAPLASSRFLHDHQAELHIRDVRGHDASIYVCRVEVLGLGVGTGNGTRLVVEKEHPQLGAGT
Method: Human-NKP30-His (Kactus, cat: NKP-HM430) was diluted to […] with PBS buffer at pH 7.4, added into the 96-well ELISA plate at 100 μL per well, coated overnight at 4° C., and blocked with 1% BSA blocking solution for 1 hour. The plate was washed 3 times with PBST, and the constructed antibodies were diluted to 10 μg/mL with 0.5% BSA sample diluent as the starting concentration, and then diluted by 3-fold gradient (11 gradients in total). A negative control (blank well and IgG1 isotype control) and a positive control were set, and the positive control was a NKP30 humanized antibody (sequence shown in SEQ ID No. 28), and incubated at 37° C. for 1 h at 100 μL per well. The plate was washed 3 times with PBST, and then HRP-labelled goat anti-human IgG-Fc was diluted with the sample diluent at 1:20000. 100 μL was added into each well, and incubated at room temperature for 1 hour. The plate was washed 4 times with PBST, and 100 μL of TMB substrate was added into each well, and incubated at room temperature without light for 10 minutes. 100 μL of 1 M HCl solution was added into each well to terminate the color development reaction. The absorbance value of each well in the 96-well plate was determined by selecting the wavelength of 450 nm and the reference wavelength of 570 nm on a multifunctional enzyme marker, and the absorbance value (OD)=OD₄₅₀ₙₘ−OD₅₇₀ₙₘ. The logarithm of the concentration of the constructed antibody was taken as the abscissa, and the measured absorbance value of each well was taken as the ordinate, and the Sigmoidaldose-response (Variable Slope) method (GraphPad Prism software, GraphPad Software, San Diego, California) was selected for nonlinear regression to obtain the binding curve of the target antibody to NKP30.

[2] = target: T2, Human-GPC3-His (human, UniProt P51654 25-559, limits assumed); test: ELISA: Human-GPC3-His coated at 0.5 µg/mL, antibody titrated 3-fold from 10 µg/mL, HRP goat anti-human IgG-Fc, OD450-OD570
T2 construct: Coated on the ELISA plate; also called GPC-3 protein; GPC3 protein; not shown: His tag
T2 sequence (P51654 25-559 limits assumed): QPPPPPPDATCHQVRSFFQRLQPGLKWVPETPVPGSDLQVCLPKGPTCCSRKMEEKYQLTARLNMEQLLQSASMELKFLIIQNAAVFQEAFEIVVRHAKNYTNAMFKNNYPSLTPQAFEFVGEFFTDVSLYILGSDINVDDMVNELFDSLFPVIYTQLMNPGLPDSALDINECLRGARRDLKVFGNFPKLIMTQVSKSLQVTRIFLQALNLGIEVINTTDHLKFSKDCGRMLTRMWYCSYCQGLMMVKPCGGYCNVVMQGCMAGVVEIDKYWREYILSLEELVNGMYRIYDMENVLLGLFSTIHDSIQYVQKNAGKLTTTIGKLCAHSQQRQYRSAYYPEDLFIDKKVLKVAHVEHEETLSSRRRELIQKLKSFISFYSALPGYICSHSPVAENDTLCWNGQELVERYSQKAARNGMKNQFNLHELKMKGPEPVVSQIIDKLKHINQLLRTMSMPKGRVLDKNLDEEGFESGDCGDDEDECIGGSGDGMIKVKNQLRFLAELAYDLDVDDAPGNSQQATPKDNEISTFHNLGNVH
Method: (§1) Human-GPC3-His was diluted to 0.5 μg/mL with PBS buffer at pH 7.4, added into the 96-well ELISA plate at 100 μL per well, coated overnight at 4° C., and blocked with 1% BSA blocking solution for 1 hour. The plate was washed 3 times with PBST, and the constructed antibody was diluted to 10 μg/mL with 0.5% BSA sample diluent as the starting concentration, and then diluted by 3-fold gradient (11 gradients in total) and incubated at 37° C. for 1 h at 100 μL per well. The plate was washed 3 times with PBST, and then HRP-labelled goat anti-human IgG-Fc was diluted with the sample diluent at 1:20000. 100 μL was added into each well, and incubated at room temperature for 1 hour. A negative control (blank well and IgG1 isotype control) and a positive control were set, and the positive control was a GPC-3 and CD3 bispecial antibody from the literature Hs, A, et al. “Engineering a bispecific antibody with a common light chain: Identification and optimization of an anti-CD3 epsilon and anti-GPC3 bispecific antibody, ERY974.” Methods 154 (2019): 10-20. (The GPC-3 and CD3 bispecial antibody sequence consists of SEQ ID No. 22, SEQ ID No. 23, and SEQ ID No. 24). The plate was washed 4 times with PBST, and 100 μL of TMB substrate was added into each well, and incubated at room temperature without light for 10 minutes. 100 μL of 1 M HCl solution was added into each well to terminate the color development reaction. The absorbance value of each well in the 96-well plate was determined by selecting the wavelength of 450 nm and the reference wavelength of 570 nm on a multifunctional enzyme marker, and the absorbance value (OD)=OD₄₅₀ₙₘ−OD₅₇₀ₙₘ. The logarithm of the concentration of the constructed antibody was taken as the abscissa, and the measured absorbance value of each well was taken as the ordinate, and the Sigmoidaldose-response (Variable Slope) method (GraphPad Prism software, GraphPad Software, San Diego, California) was selected for nonlinear regression to obtain the binding curve of the target antibody to the GPC-3 protein.

[3] = target: T2, Human-GPC3-His; test: as above; remark: listed apart in the source
Method: as §1

B1: GN15-D (bispecific antibody, human IgG1, kappa)
light: DVVMTQSPLSLPVTPGEPASISCRSSQSLVHSNRNTYLHWYLQKPGQSPQLLIYKVSNRFSGVPDRFSGSGSGTDFTLKISRVEAEDVGVYYCSQNTHVPPTFGQGTKLEIKRTVAAPSVFIFPPSDEQLKSGTASVVCLLNNFYPREAKVQWKVDNALQSGNSQESVTEQDSKDSTYSLSSTLTLSKADYEKHKVYACEVTHQGLSSPVTKSFNRGEC
heavy 1: not shown
heavy 2: QVQLVQSGAEVKKPGASVKVSCKASGYTFTDYEMHWVRQAPGQGLEWMGALDPKTGDTAYSQKFKGRVTLTADKSTSTAYMELSSLTSEDTAVYYCTRFYSYTYWGQGTLVTVSSASTKGPSVFPLAPSSKSTSGGTAALGCLVKDYFPEPVTVSWNSGALTSGVHTFPAVLQSSGLYSLSSVVTVPSSSLGTQTYICNVNHKPSNTKVDKKVEPKSCDKTHTCPPCPGGGGSGGGGSPALLLLLLLRPPATRGITCPPPMSVEHADIWVKSYSLYSRERYICNSGFKRKAGTSSLTECVLNKATNVAHWTTPSLKCIRDPALVHQRPAPPSTVTTAGVTPQPESLSPSGKEGGGGSGGGGSAPELLGGPSVFLFPPKPKDTLMISRTPEVTCVVVDVSHEDPEVKFNWYVDGVEVHNAKTKPREEQYNSTYRVVSVLTVLHQDWLNGKEYKCKVSNKALPAPIEKTISKAKGQPREPQVYTLPPSRDELTKNQVSLTCLVKGFYPSDIAVEWESNGQPENNYKTTPPVLDSDGSFFLASKLTVDKSRWQQGNVFSCSVMHEALHNHYTQKSLSLSPGKGGGGSGGGGSGGGGSGGGGSEVQLVESGGGLVQPGGSLRLSCAASGITFSRSVMGWFRQAPGKLRELVAGITSDDNTDYADSVKGRFTISRDNSKNTLYLQMNSLRAEDTAVYYCNILPDSRLGWGQGTLVTVSS
notes: Trifunctional antibody against GPC-3 and NKP30 with IL-15 and IL-15Rα sushi between CH1 and CH2; also called constructed antibody GN15-D; multifunctional antibody
- EC50 (read off the curve) [1]: ~0.03 µg/mL
- EC50 (read off the curve) [2]: ~0.04 µg/mL

B2: GN15-B (bispecific antibody, human IgG1, kappa)
light: DVVMTQSPLSLPVTPGEPASISCRSSQSLVHSNRNTYLHWYLQKPGQSPQLLIYKVSNRFSGVPDRFSGSGSGTDFTLKISRVEAEDVGVYYCSQNTHVPPTFGQGTKLEIKRTVAAPSVFIFPPSDEQLKSGTASVVCLLNNFYPREAKVQWKVDNALQSGNSQESVTEQDSKDSTYSLSSTLTLSKADYEKHKVYACEVTHQGLSSPVTKSFNRGEC
heavy 1: not shown
heavy 2: EVQLVESGGGLVQPGGSLRLSCAASGITFSRSVMGWFRQAPGKLRELVAGITSDDNTDYADSVKGRFTISRDNSKNTLYLQMNSLRAEDTAVYYCNILPDSRLGWGQGTLVTVSSGGGGSGGGGSGGGGSQVQLVQSGAEVKKPGASVKVSCKASGYTFTDYEMHWVRQAPGQGLEWMGALDPKTGDTAYSQKFKGRVTLTADKSTSTAYMELSSLTSEDTAVYYCTRFYSYTYWGQGTLVTVSSASTKGPSVFPLAPSSKSTSGGTAALGCLVKDYFPEPVTVSWNSGALTSGVHTFPAVLQSSGLYSLSSVVTVPSSSLGTQTYICNVNHKPSNTKVDKKVEPKSCDKTHTCPPCPGGGGSGGGGSPALLLLLLLRPPATRGITCPPPMSVEHADIWVKSYSLYSRERYICNSGFKRKAGTSSLTECVLNKATNVAHWTTPSLKCIRDPALVHQRPAPPSTVTTAGVTPQPESLSPSGKEGGGGSGGGGSAPELLGGPSVFLFPPKPKDTLMISRTPEVTCVVVDVSHEDPEVKFNWYVDGVEVHNAKTKPREEQYNSTYRVVSVLTVLHQDWLNGKEYKCKVSNKALPAPIEKTISKAKGQPREPQVYTLPPSRDELTKNQVSLTCLVKGFYPSDIAVEWESNGQPENNYKTTPPVLDSDGSFFLASKLTVDKSRWQQGNVFSCSVMHEALHNHYTQKSLSLSPGK
notes: Trifunctional antibody against GPC-3 and NKP30 with IL-15 and IL-15Rα sushi between CH1 and CH2; also called constructed antibody GN15-B; multifunctional antibody
- EC50 (read off the curve) [1]: ~0.03 µg/mL
- EC50 (read off the curve) [3]: ~0.03 µg/mL

— patent US20240218065A1 (SHENGHE CHINA BIOPHARMACEUTICAL, published 2024)
